These results are taken from US20220259294A1 (published 2022).

In assay [1] the target is T1, IHF from Haemophilus influenzae (Hi) (Haemophilus influenzae).
T1 chain: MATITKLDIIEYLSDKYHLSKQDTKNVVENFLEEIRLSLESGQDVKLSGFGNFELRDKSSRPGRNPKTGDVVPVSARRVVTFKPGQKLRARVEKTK
Briefly: ELISA. (In general: ELISA stands for enzyme-linked immunosorbent assay.)

Assay [2] deals with T2, IHF from Klebsiella pneumoniae (Kp) (Klebsiella pneumoniae).
T2 construct: Recombinant, His-tagged, made in HEK293 cells; also called IHF (Kp)
Briefly: ELISA.

The target in assay [3] is T1, IHF from Haemophilus influenzae (Hi). In words: ForteBio Octet QK biosensor (BLI), ratio of on and off rates.
For assay [4], the target named is T2, IHF from Klebsiella pneumoniae (Kp). The description is as above.

The Kd is the equilibrium constant for the complex coming apart.

T2 sequence (A6TAI1 whole entry, chain 1 of 2): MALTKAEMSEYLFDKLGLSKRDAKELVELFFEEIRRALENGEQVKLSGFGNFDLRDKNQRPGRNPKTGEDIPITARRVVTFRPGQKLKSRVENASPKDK
T2 sequence (A6T704 whole entry, chain 2 of 2, further chain): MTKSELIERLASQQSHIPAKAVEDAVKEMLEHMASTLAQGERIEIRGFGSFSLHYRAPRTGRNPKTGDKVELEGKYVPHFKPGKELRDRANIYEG

B1: TRL1087 (antibody, V domains shown)
VH: QVQLLESGPGLVRPSDTLSLTCTFSADLSTNAYWTWIRQPPGKGLEWIGYMSHSGGRDYNPSFNRRVTISVDTSKNQVFLRLTSVTSADTAVYFCVREVGSYYDYWGQGILVTVSS
VL: DIEMTQSPSSLSASVGDRITITCRASQGISTWLAWYQQKPGKAPKSLIFSTSSLHSGVPSKFSGSGSGTDFTLTITNLQPEDFATYYCQQKWETPYSFGQGTKLDMIR
Take B1: the OD in assay [1] and in assay [2] was 0.06 OD each time.

B2: TRL1215 (antibody, V domains shown)
VH: QVQLVESGTEVKNPGASVKVSCTASGYKFDEYGVSWVRQSPGQGLEWMGWISVYNGKTNYSQNFQGRLTLTTETSTDTAYMELTSLRPDDTAVYYCATDKNWFDPWGPGTLVTVSS
VL: DIVMTQSPSASGSPGQSITISCTGTNTDYNYVSWYQHHPGKAPKVIIYDVKKRPSGVPSRFSGSRSGNTATLTVSGLQTEDEADYYCVSYADNNHYVFGSGTKVTVL
Regarding B2, the OD in assay [1] worked out at 1.9 OD; in assay [2], 1.6 OD.

B3: TRL1068 (antibody, V domains shown)
VH: QVQLVESGPGLVKPSETLSLTCRVSGDSNRPSYWSWIRQAPGKAMEWIGYVYDSGVTIYNPSLKGRVTISLDTSKTRFSLKLTSVIAADTAVYYCARERFDRTSYKSWWGQGTQVTVSS
VL: DIVLTQAPGTLSLSPGDRATLSCRASQRLGGTSLAWYQHRSGQAPRLILYGTSNRATDTPDRFSGSGSGTDFVLTISSLEPEDFAVYYCQQYGSPPYTFGQGTTLDIK
Turning to B3, the dissociation constant Kd is 350 nM in assay [3] and 7 nM in assay [4].

B4: TRL1070 (antibody, V domains shown)
VH: QVQLVQSGGTLVQPGGSLRLSCAASGFTFSYYSMSWVRQAPGKGLEWVANIKHDGTERNYVDSVKGRFTISRDNSEKSLYLQMNSLRAEDTAVYYCAKYYYGAGTNYPLKYWGQGTRVTVSS
VL: DILMTQSPSSLSASVGDRVTITCRASQGIRNDLGWYQQKPGKAPKLLIYAASSLQSGVPSRFSGSGSGTDFTLTISSLQPEDFATYYCLQDYNYPLTFGGGTKVEIKR
Turning to B4, the results for the OD in assay [1] and in assay [2] were 0.11 OD and 0.5 OD, respectively.

B5: TRL1230 (antibody, V domains shown)
VH: QVQLVQSGGGLVKPGGSLRLSCGASGFNLSSYSMNWVRQAPGKGLEWVSSISSRSSYIYYADSVQGRFTISRDNAKNSLYLQMNSLRAEDTAIYYCARVSPSTYYYYGMDVWGQGTTVTVSS
VL: DIVLTQPSSVSVSPGQTARITCSGDELPKQYAYWYQQKPGQAPVLVIYKDNERPSGIPERFSGSSSGTTVTLTISGVQAEDEADYYCQSADSSGTYVVFGGGTKLTVL
Take B5: the OD turned out to be 0.06 OD in assay [1] and 0.07 OD in assay [2].

B6: TRL1218 (antibody, V domains shown)
VH: QVQLLESGADMVQPGRSLRLSCAASGFNFRTYAMHWVRQAPGKGLEWVAVMSHDGYTKYYSDSVRGQFTISRDNSKNTLYLQMNNLRPDDTAIYYCARGLTGLSVGFDYWGQGTLVTVSS
VL: DIVLTQSASVSGSPGQSITISCTGTSSDVGGYNYVSWYQQHPGKAPKLMIYDVTTRPSGVSDRFSGSKSGNTASLTISGLQAEDEADYYCSSYSSGSTPALFGGGTQLTVL
With B6, the OD in assay [1] stood at 0.04 OD; in assay [2] it was 0.06 OD.

B7: TRL1216 (antibody, V domains shown)
VH: QVQLVESGGGVVQPGGSLRVSCAASAFSFRDYGIHWVRQAPGKGLQWVAVISHDGGKKFYADSVRGRFTISRDNSENTLYLQMNSLRSDDTAVYYCARLVASCSGSTCTTQPAAFDIWGPGTLVTVSS
VL: DIMLTQPPSVSVSPGQTARITCSGDALPKKYTYWYQQKSGQAPVLLIYEDRKRPSEIPERFSAFTSWTTATLTITGAQVRDEADYYCYSTDISGDIGVFGGGTKLTVL
For B7, the figures for the OD in assay [1] and in assay [2] were 0.06 OD and 0.4 OD, respectively.

B8: TRL1232 (antibody, V domains shown)
VH: QVQLVESGAEVKKPGALVKVSCKASGYTFSGYYMHWVRQAPGQGLEWMGWINPKSGGTKYAQKFQGRVTMTRDTSISTAYMELSRLRSDDTAVYFCARGGPSNLERFLERLQPRYSYDDKYAMDVWGQGTTVTVSS
VL: DIVMTQSPGTLSLSPGARATLSCRASQSVSSIYLAWYQQKPGQAPRLLIFGASSRATGIPDRFSGSGSGTDFTLTISRLEPEDFAVYYCQQYGSSPYTFGQGTKLEIKR
Regarding B8, the OD in assay [1] and in assay [2] was 0.1 OD each time.
